PMC11581024 (bioRxiv, 2024)

Biological target: the molecule itself
Test: SEC-MALS

B1: Treponema denticola ComFB (natural protein)
chain: MIIHNVMEDLVYTEVNKLFDEAEEKKESWLTCSCMQCRVDTMCYVLNRVKPRYIKSGRGLAHFLKFEKTEKVQIMADITSLVIEGMHRVLSTKRPHDHEPIFETENTPVFNFPAITGNILNGSNFRPMEDATISLKMNGELVSQMSILWDNPYTISEKTPGAYTFCPKAIPAKNAGDKEKFIFVLKAEKEGFDPTNFSFDIELTAEDMVKSPLDSSNFYQIKNLFLCEHSEEE
- stoichiometry N: 2
